Literature values as cited in publication PMC10612106.

Molecular target: MORC3 ATPase domain (Homo sapiens) (UniProt Q14149)

In the case of MORC3 CW (from UniProt Q14149), the Kd is given as 9 µM.
